Reference: patent US20260234242A1 (HAINAN SIMCERE ZAIMING PHARMACEUTICAL, published 2026)

T1: monkey CDH6 protein (cynoCDH6 ECD-his) (monkey (cyno), UniProt A0A2K5TW62 19-615)
T1 construct: range 19-615; also called Cyno CDH6-his; not shown: his tag
T1 sequence: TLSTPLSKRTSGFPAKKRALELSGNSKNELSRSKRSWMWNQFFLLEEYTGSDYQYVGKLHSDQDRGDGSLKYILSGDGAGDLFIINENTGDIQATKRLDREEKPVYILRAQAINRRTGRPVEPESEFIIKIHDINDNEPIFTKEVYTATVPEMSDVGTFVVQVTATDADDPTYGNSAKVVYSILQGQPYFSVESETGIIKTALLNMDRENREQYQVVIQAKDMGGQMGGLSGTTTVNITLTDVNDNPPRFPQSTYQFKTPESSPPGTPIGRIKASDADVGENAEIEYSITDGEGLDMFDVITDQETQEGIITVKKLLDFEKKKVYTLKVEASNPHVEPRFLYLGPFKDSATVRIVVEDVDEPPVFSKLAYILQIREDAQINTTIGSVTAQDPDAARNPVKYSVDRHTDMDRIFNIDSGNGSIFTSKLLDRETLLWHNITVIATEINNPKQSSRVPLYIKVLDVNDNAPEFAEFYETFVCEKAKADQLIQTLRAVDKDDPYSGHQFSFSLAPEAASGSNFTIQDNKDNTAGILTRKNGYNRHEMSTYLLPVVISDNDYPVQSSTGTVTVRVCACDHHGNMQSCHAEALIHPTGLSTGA

T2: human CDH6 on tumor cells (OVCAR3 cells, PA-1 cells) (human, UniProt P55285 54-790)
T2 sequence: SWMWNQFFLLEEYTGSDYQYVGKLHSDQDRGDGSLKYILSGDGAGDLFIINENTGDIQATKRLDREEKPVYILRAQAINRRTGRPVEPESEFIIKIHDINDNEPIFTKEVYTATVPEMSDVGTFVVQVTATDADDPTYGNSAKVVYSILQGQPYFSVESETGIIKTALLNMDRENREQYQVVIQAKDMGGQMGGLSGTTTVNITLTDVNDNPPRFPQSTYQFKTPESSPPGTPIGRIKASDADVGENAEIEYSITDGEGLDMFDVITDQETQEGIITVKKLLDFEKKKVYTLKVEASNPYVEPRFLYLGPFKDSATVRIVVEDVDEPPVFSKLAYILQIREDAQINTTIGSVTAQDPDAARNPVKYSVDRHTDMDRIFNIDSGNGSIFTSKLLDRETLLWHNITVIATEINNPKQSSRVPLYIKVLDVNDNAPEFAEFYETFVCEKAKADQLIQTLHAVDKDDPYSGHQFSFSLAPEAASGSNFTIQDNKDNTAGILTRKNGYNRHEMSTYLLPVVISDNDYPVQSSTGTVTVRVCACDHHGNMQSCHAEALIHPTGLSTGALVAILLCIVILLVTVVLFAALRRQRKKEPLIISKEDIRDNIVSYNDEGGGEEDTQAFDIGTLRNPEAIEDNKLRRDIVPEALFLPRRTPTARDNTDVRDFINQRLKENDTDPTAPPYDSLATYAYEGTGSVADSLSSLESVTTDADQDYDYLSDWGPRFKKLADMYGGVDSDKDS

B1: NOV0712 (antibody, human IgG1, kappa, V domains shown)
VH: QVQLLESGGGLVQPGGSLRLSCAASGFTFSSHGMHWVRQAPGKGLEWVSVISGSGSNTGYADSVKGRFTISRDNSKNTLYLQMNSLRAEDTAVYYCARQWGSYAFDSWGQGTLVTVSS
VL: DIQMTQSPSSLSASVGDRVTITCRASQSISSYLNWYQQKPGKAPKLLIYAVSTLQSGVPSRFSGSGSGTDFTLTISSLQPEDFATYYCQQSGTFPPTTFGQGTKVEIKR
notes: Positive control, variable regions from WO2018212136A1; also called positive control anti-human CDH6 antibody
B2: CHI-CDH6-12 (antibody, human IgG1, kappa, V domains shown)
VH: EVNLVESGGGLVQPGDSLTLSCSASGFTFTDYYMSWVRQFPGKALEWLALIRNKANSYTTEYSASVKGRFTISRDNSQSILYLQMNALRAEDSATYYCARDSYYSHDGFAYWGQGTLVTVSA
VL: DIVLTQSPASLAVSLGQRATISCRASKSVSTSSYTYMHWYQQKPGQPPKLLIKFASYLESGVPARFSGSGSGTDFTLNIHPVEEEDAATYYCQHSREFPFTFGTGTKLEIKR
notes: also called CH1-CDH6-12; chimeric antibody of murine CDH6-12
B3: CHI-CDH6-13 (antibody, human IgG1, kappa, V domains shown)
VH: DVQLQESGPGLVKPSQSLSLTCSVTGYSITKDSYWNWIRQFPGSKLEWMGFISYDGSRHYNPSLKNRISITRDTSKNQFFLQLNSVTTEDTATYYCARRDYADYWGQGTTLTVSS
VL: QIVLTQSPALMSAFPGEKVTMTCSATSSVSYIYWYQQKPRSSPKPWIYLTSNLASGVPARFSGSGSGTSYSLTINSLEAEDAATYYCQQWSSIPYTFGGGTKLEIKR
notes: also called chimeric antibody of murine CDH6-13
B4: DS-H01L02 (antibody, human IgG1, kappa, V domains shown)
VH: EVQLVQSGAEVKKPGASVKVSCKASGYTFTRNFMHWVRQAPGQGLEWMGWIYPGDGETEYAQKFQGRVTITADTSTSTAYMELSSLRSEDTAVYYCARGVYGGFAGGYFDFWGQGTLVTVSS
VL: DIQMTQSPSSLSASVGDRVTITCKASQNIYKNLAWYQQKPGKAPKLLIYDANTLQTGVPSRFSGSGSGSDFTLTISSLQPEDFATYFCQQYYSGWAFGQGTKVEIKR
notes: as for B1
B5: CHI-CDH6-14 (antibody, human IgG1, kappa, V domains shown)
VH: QIQLQQSGPELVKPGTSVKISCKASGYTFTDNYINWVRQRPGQGLEWIGWIYPGTGNSYYNEKFKGKATLTVDTSSSTAYMQFSSLTSEDSAVYLCASSYGDSFDYWGQGTTLTVSS
VL: DIQMTQTTSSLSASLGNRVTISCRASQDIRNYLNWYQQKPDGTFKLLISYTSRLHSGVPSRFSGSGSGTDYSLTVSNLEPEDIATYYCQQYSQLPWTFGGGSRLEIKR
notes: also called CHI-hCDH6-14; CH1-CDH6-14

molecular target: T1, monkey CDH6 protein (cynoCDH6 ECD-his); assay: ELISA, coated antigen
Method: Human CDH6 protein (hCDH6 ECD-his, conventionally synthesized), monkey CDH6 protein (cynoCDH6 ECD-his, conventionally synthesized; the cynoCDH6 ECD sequence was derived from Uniprot #A0A2K5TW62 (19-615)), and murine CDH6 protein (mCDH6 ECD-his, conventionally synthesized; the mCDH6 ECD sequence was derived from Uniprot #P97326 (19-615)) were diluted with PBS to a final concentration of 1 μg/mL, and added to a 96-well ELISA plate at 100 μL/well. The plate was incubated at 4° C. overnight. The next day, the plate was washed 3 times with a plate washing solution (PBS+0.01% (v/v) Tween 20), and a blocking buffer (PBS+0.01% (v/v) Tween 20+2% (w/w) BSA) was added for blocking at room temperature for 2 h. The blocking buffer was discarded, and the plate was washed 3 times. The chimeric antibodies were diluted with 1% BSA+PBS (purchased from Cytiva, Cat. No. SH30264.01) and added to the 96-well plate at 50 μL/well. After incubation at 37° C. for 2 h, the plate was washed 3 times with a plate washing solution. […] The plate was incubated at 37° C. for 1 h and then washed 5 times with a plate washing solution. A TMB substrate (purchased from Seracare, Cat. No. 5120-0077) was added at 50 μL/well and incubated at room temperature for 10 min, then a stop solution (1.0 N HCl) was added at 50 μL/well. OD450 nm values were read using a microplate reader (Biotek). Analysis was performed by the GraphPad Prism software, data were fitted, and EC50 values were calculated. The chimeric antibodies tested all had strong binding to the human CDH6 protein, the monkey CDH6 protein, and the murine CDH6 protein.

Row | Binder | EC50 | Max OD450
1 | B1 | 39 pM | 2.44 OD450
2 | B2 | 44 pM | 2.45 OD450
3 | B3 | 17 pM | 2.72 OD450
4 | B4 | 103 pM | 2.18 OD450
5 | B5 | 39 pM | 2.55 OD450

molecular target: T2, human CDH6 on tumor cells (OVCAR3 …); assay: FACS, PA-1 cells
Method: OVCAR3 cells with high expression of CDH6 and PA-1 cells with moderate expression of CDH6 were used to detect the binding activity of the antibodies to the cells. […] The cells were washed once with PBS, counted, resuspended to 2×10⁶ cells/mL in an FACS buffer (PBS+2% FBS), and then added to a 96-well plate at 50 μL/well. The chimeric antibodies were diluted with FACS buffer (PBS+2% FBS) and added to the 96-well plate at 50 μL/well, and the plate was incubated at 4° C. for 1 h. […] The dilution was added to the 96-well plate at 50 μL/well, and the plate was incubated at 4° C. for 1 h. After the plates were centrifuged and washed 2 times with PBS, the cells were resuspended in an FACS buffer. The mean fluorescence intensity (MFI) was measured using FACS Canton II (BD). Analysis was performed by the GraphPad Prism software, data were fitted, and EC50 values were calculated. The chimeric antibodies tested had strong binding to both OVCAR3 cells and PA-1 cells.

Row | Binder | EC50 | Max MFI
6 | B1 | 1460 pM | 3600 MFI
7 | B2 | 2270 pM | 3150 MFI
8 | B3 | 1970 pM | 4440 MFI
9 | B4 | 1090 pM | 1880 MFI
10 | B5 | 260 pM | 5410 MFI
